Numbered stars: 1 amine (or outer) side, 2 acyl side, 3 side chain; on linkers, the order of the positions; unused ones are H or OH. Square brackets hold non-standard residues; d marks the D form. Peptide text beside a SMILES is read from it. * marks the point of attachment. Exatecan = CC[C@@]1(O)C(=O)OCc2c1cc1n(c2=O)Cc2c-1nc1cc(F)c(C)c3c1c2[C@@H](N*)CC3; Dolaproine = CO[C@@H]([C@@H]1CCCN1)[C@@H](C)C(=O)O; Hexanoyl(6-maleimido) = O=C1C=CC(=O)N1CCCCCC(=O)*; Dil = CC[C@H](C)[C@H](NC)[C@@H](CC(=O)O)OC; PABC = O=C(OCc1ccc(N[*:1])cc1)[*:2]; X1 = C[N+](C)(CCCS(=O)(=O)[O-])CCN*; NHCH2OCH2CO = O=C(COCN[*:1])[*:2]; X2 = C[C@@H](N*)[C@@H](O)c1ccccc1; NMeV = CN[C@H](C(=O)O)C(C)C
Tests used:
[1] = molecular target: T1, Cathepsin B enzyme (Homo sapiens, UniProt P07858); test: In vitro enzymatic release of free toxin molecules by Cathepsin B; assay type: biochemical
T1 construct: purchased Sino Biological 10483-H08H
Experimental: Preparation of activated buffer solution (10 mM L-cysteine (ACRO, cat #: 173600250), 15 mM EDTA, 0.1M His HCl, pH 5.5): […] of solid cysteine was weighed, adding 3 mL of 0.1M His HCl (pH 5.5) solution for dissolution, and then adding 90 μL of 0.5M EDTA solution to mix well.
[…] At each detection time point, 50 μL of enzyme digestion solution was taken, adding 2.5 μL of 10% TFA solution to terminate the reaction for enzyme digestion kinetics detection.
Negative control preparation: 30 μL of activated buffer was taken to stay in 37° C. water bath for 15 minutes, then adding 300 μL of 0.1M His HCl (pH 5.5) solution and 36 μL of 9D1-LD-38 (375 μg) to stay in 37° C. water bath overnight.

[2] = Hydrophobic interaction chromatography (HIC) analysis of the antibody-drug conjugates; assay type: physicochemical; conditions: main peak of the antibody-drug conjugate, Butyl-NPR column
Experimental: Size exclusion chromatography (SEC) analysis column is Tskgel G3000SWXL (TOSOH, 0008541); mobile phase is 0.1 M PB, pH7.0, 0.1M NaCl; isocratic elution, flow rate: 1 mL/min; column temperature: 25° C. Detection wavelength is 280 nm and 366 nm, respectively. Hydrophobic interaction chromatography (HIC) analysis column is Butyl-NPR 4.6×100 mm (TOSOH, 0042168); mobile phase A is 50 mM PB, pH7.0, 1.5 M (NH4)2SO4; mobile phase B is 50 mM PB, pH7.0, 20% acetonitrile. Separation gradient: changing from 0% B to 100% B in 2-20 min, column temperature: 30° C., flow rate: 0.6 mL/min. Detection wavelength is 280 nm and 366 nm, respectively. The results are shown in Table 1 and FIG. 1-FIG. 6 (FIG. 1 comprises FIG. 1A and FIG. 1B; FIG. 2 comprises FIG. 2A and FIG. 2B; FIG. 3 comprises FIG. 3A, FIG. 3B, FIG. 3C, FIG. 3D, FIG. 3E, FIG. 3F, FIG. 3G and FIG. 3H; FIG. 4 comprises FIG. 4A and FIG. 4B; FIG. 5 comprises FIG. 5A and FIG. 5B; and FIG. 6 comprises FIG. 6A, FIG. 6B, FIG. 6C, […], FIG. 6E, FIG. 6F, FIG. 6G and […]).

[3] = Size exclusion chromatography (SEC) analysis of the antibody-drug conjugates; assay type: physicochemical; conditions: SEC purity of the antibody-drug conjugate
Experimental: Size exclusion chromatography (SEC) analysis column is Tskgel G3000SWXL (TOSOH, 0008541); mobile phase is 0.1 M PB, pH7.0, 0.1M NaCl; isocratic elution, flow rate: 1 mL/min; column temperature: 25° C. Detection wavelength is 280 nm and 366 nm, respectively. Hydrophobic interaction chromatography (HIC) analysis column is Butyl-NPR 4.6×100 mm (TOSOH, 0042168); mobile phase A is 50 mM PB, pH7.0, 1.5 M (NH4)2SO4; mobile phase B is 50 mM PB, pH7.0, 20% acetonitrile. Separation gradient: changing from 0% B to 100% B in 2-20 min, column temperature: 30° C., flow rate: 0.6 mL/min. Detection wavelength is 280 nm and 366 nm, respectively.

[4] = system: MC38-hClaudin18.2 cells; test: In vitro tumor cell killing activity, MC38-hClaudin18.2 cell line (AlamarBlue); assay type: cell-based, mouse; conditions: MC38-hClaudin18.2 cells, 48-72 hours, AlamarBlue; read-out: IC50 values
Experimental: 9D1 antibody-drug conjugates prepared in the previous Experimental Examples and Comparative Examples were used for performing in vitro killing test on MC38 cell lines stably expressing human Claudin18.2. MC38-hClaudin18.2 cells were inoculated into a 96-well cell culture plate at 3000 cells/well, adding gradient diluted 9D1 ADCs next day to culture for 48-72 hours. The fluorescence values of each experimental well were detected by AlamarBlue reagent (ThermoFisher, item number DAL1100), and the cell viability was calculated.
When the cell confluence was greater than 80%, the cells were passaged at a ratio of 1:10 to 1:20 every 3 days.
MC38-hClaudin18.2 cells were digested by a digestive solution of recombinant enzyme (TrypLE™ Express Enzyme). […] The cell density was adjusted to 3×10^4 cells/mL, inoculating into 96-well cell culture plate at 100 μL/well. The cells were cultured overnight at 37° C. in 5% C02 incubator. The next day, the test drug was diluted 10 times in a series with a total of 7-8 concentration points, simultaneously setting a blank control with a sample concentration of 0. The diluted sample was added to 96-well cell culture plate containing cells at 100 μL/well, then incubating at 37° C. in 5% CO2 incubator for 48-72 hours. 20 μL of AlamarBlue detection reagent was added to each well, incubating at 37° C. for 4-6 hours, the fluorescence signal intensity was detected on a multifunctional enzyme-linked immunosorbent assay (ELISA) instrument with an excitation wavelength of 560 nm and an emission wavelength of 590 nm.
The cell viability of the blank control was set to 100%, and the cell viability (%) of the experimental well was calculated by the following formula: […]
The detected average cell viability was takedn as the y-axis, a sigmoid dose response (Variable Slope) method (GraphPad Prism software, GraphPad Software, San Diego, California) was used for nonlinear regression to obtain the inhibitory effect curves of cell proliferation, and the corresponding IC50 values (half maximum inhibition concentration) were calculated. […]

[5] = Time 0 h, linker-toxin to Cathepsin B about 1200:1, 37° C.

Compound: CC[C@@]1(O)C(=O)OCc2c1cc1n(c2=O)Cc2c-1nc1cc(F)c(C)c3c1c2[C@@H](NC(=O)COCNC(=O)CNC(=O)[C@H](Cc1ccccc1)NC(=O)CNC(=O)CNC(=O)CCCCCN1C(=O)C=CC1=O)CC3 [Deruxtecan (MC-GGFG-Dxd), reference compound] ({Hexanoyl(6-maleimido)}-GGFG[NHCH2OCH2CO]-Exatecan)
- Cathepsin B enzyme digestion kinetics [1, 5]: 0%
- Cathepsin B enzyme digestion kinetics ([1]; Time 1 h): 0%
- Cathepsin B enzyme digestion kinetics ([1]; Time 2 h): 0%
- Cathepsin B enzyme digestion kinetics ([1]; Time 4 h): 0%
- Cathepsin B enzyme digestion kinetics ([1]; Time 20 h): 0%
- Cathepsin B enzyme digestion kinetics ([1]; Time 20 h, listed as MC-GGFG-Dxd): does not release any enzyme digestion products

Compound: CC[C@@]1(O)C(=O)OCc2c1cc1n(c2=O)Cc2c-1nc1cc(F)c(C)c3c1c2[C@@H](NC(=O)OCc1ccc(NC(=O)[C@H](C)NC(=O)[C@@H](NC(=O)[C@H](CCC(=O)O)NC(=O)CCCCCN2C(=O)C=CC2=O)C(C)C)cc1)CC3 [LD-27]
- HIC retention time [2]: 15.107 min

Compound: CC[C@@]1(O)C(=O)OCc2c1cc1n(c2=O)Cc2c-1nc1cc(F)c(C)c3c1c2[C@@H](NC(=O)OCc1ccc(NC(=O)[C@H](C)NC(=O)[C@@H](NC(=O)[C@H](CCC(=O)NCC[N+](C)(C)CCCS(=O)(=O)[O-])NC(=O)CCOCCOCCOCCOCCNC(=O)CCN2C(=O)C=CC2=O)C(C)C)cc1)CC3 [LD-37]
- SEC % [3]: 97.50%
- HIC retention time [2]: 14.069 min

Compound: CC[C@@]1(O)C(=O)OCc2c1cc1n(c2=O)Cc2c-1nc1cc(F)c(C)c3c1c2[C@@H](NC(=O)OCc1ccc(NC(=O)[C@H](CCC(=O)NCC[N+](C)(C)CCCS(=O)(=O)[O-])NC(=O)[C@@H](NC(=O)CCOCCOCCOCCOCCNC(=O)CCN2C(=O)C=CC2=O)C(C)C)cc1)CC3 [LD-38]
- HIC retention time [2]: 13.57 min
- Cathepsin B enzyme digestion kinetics [1, 5]: 0%
- Cathepsin B enzyme digestion kinetics ([1]; Time 1 h): 20%
- Cathepsin B enzyme digestion kinetics ([1]; Time 2 h): 77%
- Cathepsin B enzyme digestion kinetics ([1]; Time 20 h): 100%

Compound: CC[C@H](C)[C@@H]([C@@H](CC(=O)N1CCC[C@H]1[C@H](OC)[C@@H](C)C(=O)N[C@H](C)[C@@H](O)c1ccccc1)OC)N(C)C(=O)[C@@H](NC(=O)[C@H](C(C)C)N(C)C(=O)OCc1ccc(NC(=O)[C@H](CCC(=O)NCC[N+](C)(C)CCCS(=O)(=O)[O-])NC(=O)[C@@H](NC(=O)CCCCCN2C(=O)C=CC2=O)C(C)C)cc1)C(C)C [LD-57] ({Hexanoyl(6-maleimido)}-VE(X1)[PABC][NMeV]V[Dil][Dolaproine]-X2)
- SEC % [3]: 99.34%
- HIC retention time [2]: 16.066 min

Compound: CC[C@@]1(O)C(=O)OCc2c1cc1n(c2=O)Cc2c-1nc1cc(F)c(C)c3c1c2[C@@H](NC(=O)OCc1ccc(NC(=O)[C@H](C)NC(=O)[C@@H](NC(=O)CCOCCOCCOCCOCCNC(=O)CCN2C(=O)C=CC2=O)C(C)C)cc1CN(C)C(=O)CCC[N+](C)(C)CCCS(=O)(=O)[O-])CC3 [LD-65]
- SEC % [3]: 99.28%
- HIC retention time [2]: 13.46 min
- HIC retention time ([2]; listed as 7): 13.455 min
- Cathepsin B enzyme digestion kinetics [1, 5]: 0%
- Cathepsin B enzyme digestion kinetics ([1]; Time 1 h): 0%
- Cathepsin B enzyme digestion kinetics ([1]; Time 2 h): 1%
- Cathepsin B enzyme digestion kinetics ([1]; Time 4 h): 1%

Compound: CC[C@@]1(O)C(=O)OCc2c1cc1n(c2=O)Cc2c-1nc1cc(F)c(C)c3c1c2[C@@H](NC(=O)OCc1ccc(NC(=O)CNC(=O)[C@H](Cc2ccccc2)NC(=O)CNC(=O)CNC(=O)CCCCCN2C(=O)C=CC2=O)cc1CN(C)C(=O)COP(=O)([O-])OCC[N+](C)(C)C)CC3 [LD-72]
- SEC % [3]: 98.90%
- HIC retention time [2]: 13.126 min

Compound: CC[C@@]1(O)C(=O)OCc2c1cc1n(c2=O)Cc2c-1nc1cc(F)c(C)c3c1c2[C@@H](NC(=O)OCc1ccc(NC(=O)[C@H](C)NC(=O)[C@@H](NC(=O)CCOCCOCCOCCOCCNC(=O)CCN2C(=O)C=CC2=O)C(C)C)cc1CN(C)C(=O)CCOCCOCCOCCOCCOCCOCCOCCOCCOC)CC3 [LD-73]
- SEC % [3]: 99.53%
- HIC retention time [2]: 16.002 min

Compound: CC[C@@]1(O)C(=O)OCc2c1cc1n(c2=O)Cc2c-1nc1cc(F)c(C)c3c1c2[C@@H](NC(=O)OCc1ccc(NC(=O)[C@H](C)NC(=O)[C@@H](NC(=O)CCCCCN2C(=O)C=CC2=O)C(C)C)cc1CN(C)C(=O)CN(C)C(=O)CN(C)C(=O)CN(C)C(=O)CN(C)C(=O)CN(C)C(=O)CN(C)C(=O)CN(C)C(=O)CN(C)C(=O)CN(C)C(=O)CN(C)C(C)=O)CC3 [LD-74, reference compound]
- SEC % [3]: 99.53%
- HIC retention time [2]: 13.583 min

Compound: CC[C@@]1(O)C(=O)OCc2c1cc1n(c2=O)Cc2c-1nc1cc(F)c(C)c3c1c2[C@@H](NC(=O)OCc1ccc(NC(=O)[C@H](CCC(=O)N(CCCS(=O)(=O)[O-])CC[N+](C)(C)C)NC(=O)[C@@H](NC(=O)CCOCCOCCOCCOCCNC(=O)CCN2C(=O)C=CC2=O)C(C)C)cc1)CC3 [LD-89]
- SEC % [3]: 98.00%
- HIC retention time [2]: 13.392 min

Compound: CC[C@@]1(O)C(=O)OCc2c1cc1n(c2=O)Cc2c-1nc1cc(F)c(C)c3c1c2[C@@H](NC(=O)OCc1ccc(NC(=O)[C@H](C)NC(=O)[C@@H](NC(=O)CCCCCN(C)CCN2C(=O)C=CC2=O)C(C)C)cc1CN(C)C(=O)CCC[N+](C)(C)CCCS(=O)(=O)[O-])CC3 [LD-98]
- SEC % [3]: 98.79%
- HIC retention time [2]: 13.121 min

Compound: CC[C@H](C)[C@@H]([C@@H](CC(=O)N1CCC[C@H]1[C@H](OC)[C@@H](C)C(=O)N[C@H](C)[C@@H](O)c1ccccc1)OC)N(C)C(=O)[C@@H](NC(=O)[C@@H](NC)C(C)C)C(C)C [MMAE, monomethyl auristatin E] (H-[NMeV]V[Dil][Dolaproine]-X2)
- IC50 [4]: 2.04 nM
